Laboratory results published in article PMC6458054 (Nature, 2017).

What was measured:
[1] = molecular target: full-length (FL) His-ASCC3 (human, UniProt Q8N3C0 1-2202); test: pull-down
[2] = molecular target: N-terminally deleted His-ASCC3 (human, UniProt Q8N3C0 401-2202); test: pull-down
Chain of N-terminally deleted His-ASCC3 (Q8N3C0 401-2202, stated change not applied): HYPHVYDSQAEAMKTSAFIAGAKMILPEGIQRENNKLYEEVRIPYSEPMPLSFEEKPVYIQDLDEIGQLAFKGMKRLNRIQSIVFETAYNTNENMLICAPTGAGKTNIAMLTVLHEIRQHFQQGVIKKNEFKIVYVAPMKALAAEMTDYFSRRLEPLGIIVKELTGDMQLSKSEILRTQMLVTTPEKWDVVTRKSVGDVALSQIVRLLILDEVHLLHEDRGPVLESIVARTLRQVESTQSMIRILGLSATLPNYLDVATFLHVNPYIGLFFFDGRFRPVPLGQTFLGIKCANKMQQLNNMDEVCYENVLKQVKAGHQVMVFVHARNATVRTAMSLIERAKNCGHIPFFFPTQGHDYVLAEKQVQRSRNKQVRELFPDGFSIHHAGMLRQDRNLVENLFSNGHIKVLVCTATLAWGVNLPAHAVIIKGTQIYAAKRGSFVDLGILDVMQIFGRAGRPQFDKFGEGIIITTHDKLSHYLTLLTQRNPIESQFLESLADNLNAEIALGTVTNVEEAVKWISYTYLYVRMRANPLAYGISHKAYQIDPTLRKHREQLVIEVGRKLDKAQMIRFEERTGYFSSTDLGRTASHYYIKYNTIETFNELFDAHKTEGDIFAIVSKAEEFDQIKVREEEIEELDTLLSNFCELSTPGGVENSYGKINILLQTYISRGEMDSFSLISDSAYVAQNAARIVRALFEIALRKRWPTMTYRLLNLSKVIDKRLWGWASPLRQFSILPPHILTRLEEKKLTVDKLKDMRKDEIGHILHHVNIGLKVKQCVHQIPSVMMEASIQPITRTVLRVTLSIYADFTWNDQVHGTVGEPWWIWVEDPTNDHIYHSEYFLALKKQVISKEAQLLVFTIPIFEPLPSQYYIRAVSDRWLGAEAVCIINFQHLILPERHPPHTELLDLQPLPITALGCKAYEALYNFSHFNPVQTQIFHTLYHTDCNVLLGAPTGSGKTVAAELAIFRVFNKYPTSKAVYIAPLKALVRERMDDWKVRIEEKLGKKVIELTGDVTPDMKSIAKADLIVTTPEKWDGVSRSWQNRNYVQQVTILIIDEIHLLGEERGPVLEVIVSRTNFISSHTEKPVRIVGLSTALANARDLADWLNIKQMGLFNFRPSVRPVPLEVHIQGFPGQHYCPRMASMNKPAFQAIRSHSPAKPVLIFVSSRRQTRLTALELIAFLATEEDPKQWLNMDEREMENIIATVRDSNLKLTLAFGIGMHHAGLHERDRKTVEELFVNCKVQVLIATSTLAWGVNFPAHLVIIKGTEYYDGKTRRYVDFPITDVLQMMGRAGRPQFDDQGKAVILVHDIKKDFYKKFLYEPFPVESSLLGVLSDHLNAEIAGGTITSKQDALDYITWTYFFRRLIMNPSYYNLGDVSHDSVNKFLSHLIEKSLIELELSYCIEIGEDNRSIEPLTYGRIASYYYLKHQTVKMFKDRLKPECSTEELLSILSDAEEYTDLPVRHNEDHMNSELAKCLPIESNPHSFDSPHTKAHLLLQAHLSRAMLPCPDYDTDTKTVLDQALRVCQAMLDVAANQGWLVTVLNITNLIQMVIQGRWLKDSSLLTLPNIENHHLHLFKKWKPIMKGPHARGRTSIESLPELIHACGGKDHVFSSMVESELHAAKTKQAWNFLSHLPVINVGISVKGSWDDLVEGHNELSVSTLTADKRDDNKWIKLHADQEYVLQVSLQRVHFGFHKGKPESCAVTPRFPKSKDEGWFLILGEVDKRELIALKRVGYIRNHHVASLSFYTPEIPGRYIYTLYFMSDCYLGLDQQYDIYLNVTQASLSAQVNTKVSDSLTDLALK

Chain of full-length (FL) His-ASCC3 (Q8N3C0 whole entry): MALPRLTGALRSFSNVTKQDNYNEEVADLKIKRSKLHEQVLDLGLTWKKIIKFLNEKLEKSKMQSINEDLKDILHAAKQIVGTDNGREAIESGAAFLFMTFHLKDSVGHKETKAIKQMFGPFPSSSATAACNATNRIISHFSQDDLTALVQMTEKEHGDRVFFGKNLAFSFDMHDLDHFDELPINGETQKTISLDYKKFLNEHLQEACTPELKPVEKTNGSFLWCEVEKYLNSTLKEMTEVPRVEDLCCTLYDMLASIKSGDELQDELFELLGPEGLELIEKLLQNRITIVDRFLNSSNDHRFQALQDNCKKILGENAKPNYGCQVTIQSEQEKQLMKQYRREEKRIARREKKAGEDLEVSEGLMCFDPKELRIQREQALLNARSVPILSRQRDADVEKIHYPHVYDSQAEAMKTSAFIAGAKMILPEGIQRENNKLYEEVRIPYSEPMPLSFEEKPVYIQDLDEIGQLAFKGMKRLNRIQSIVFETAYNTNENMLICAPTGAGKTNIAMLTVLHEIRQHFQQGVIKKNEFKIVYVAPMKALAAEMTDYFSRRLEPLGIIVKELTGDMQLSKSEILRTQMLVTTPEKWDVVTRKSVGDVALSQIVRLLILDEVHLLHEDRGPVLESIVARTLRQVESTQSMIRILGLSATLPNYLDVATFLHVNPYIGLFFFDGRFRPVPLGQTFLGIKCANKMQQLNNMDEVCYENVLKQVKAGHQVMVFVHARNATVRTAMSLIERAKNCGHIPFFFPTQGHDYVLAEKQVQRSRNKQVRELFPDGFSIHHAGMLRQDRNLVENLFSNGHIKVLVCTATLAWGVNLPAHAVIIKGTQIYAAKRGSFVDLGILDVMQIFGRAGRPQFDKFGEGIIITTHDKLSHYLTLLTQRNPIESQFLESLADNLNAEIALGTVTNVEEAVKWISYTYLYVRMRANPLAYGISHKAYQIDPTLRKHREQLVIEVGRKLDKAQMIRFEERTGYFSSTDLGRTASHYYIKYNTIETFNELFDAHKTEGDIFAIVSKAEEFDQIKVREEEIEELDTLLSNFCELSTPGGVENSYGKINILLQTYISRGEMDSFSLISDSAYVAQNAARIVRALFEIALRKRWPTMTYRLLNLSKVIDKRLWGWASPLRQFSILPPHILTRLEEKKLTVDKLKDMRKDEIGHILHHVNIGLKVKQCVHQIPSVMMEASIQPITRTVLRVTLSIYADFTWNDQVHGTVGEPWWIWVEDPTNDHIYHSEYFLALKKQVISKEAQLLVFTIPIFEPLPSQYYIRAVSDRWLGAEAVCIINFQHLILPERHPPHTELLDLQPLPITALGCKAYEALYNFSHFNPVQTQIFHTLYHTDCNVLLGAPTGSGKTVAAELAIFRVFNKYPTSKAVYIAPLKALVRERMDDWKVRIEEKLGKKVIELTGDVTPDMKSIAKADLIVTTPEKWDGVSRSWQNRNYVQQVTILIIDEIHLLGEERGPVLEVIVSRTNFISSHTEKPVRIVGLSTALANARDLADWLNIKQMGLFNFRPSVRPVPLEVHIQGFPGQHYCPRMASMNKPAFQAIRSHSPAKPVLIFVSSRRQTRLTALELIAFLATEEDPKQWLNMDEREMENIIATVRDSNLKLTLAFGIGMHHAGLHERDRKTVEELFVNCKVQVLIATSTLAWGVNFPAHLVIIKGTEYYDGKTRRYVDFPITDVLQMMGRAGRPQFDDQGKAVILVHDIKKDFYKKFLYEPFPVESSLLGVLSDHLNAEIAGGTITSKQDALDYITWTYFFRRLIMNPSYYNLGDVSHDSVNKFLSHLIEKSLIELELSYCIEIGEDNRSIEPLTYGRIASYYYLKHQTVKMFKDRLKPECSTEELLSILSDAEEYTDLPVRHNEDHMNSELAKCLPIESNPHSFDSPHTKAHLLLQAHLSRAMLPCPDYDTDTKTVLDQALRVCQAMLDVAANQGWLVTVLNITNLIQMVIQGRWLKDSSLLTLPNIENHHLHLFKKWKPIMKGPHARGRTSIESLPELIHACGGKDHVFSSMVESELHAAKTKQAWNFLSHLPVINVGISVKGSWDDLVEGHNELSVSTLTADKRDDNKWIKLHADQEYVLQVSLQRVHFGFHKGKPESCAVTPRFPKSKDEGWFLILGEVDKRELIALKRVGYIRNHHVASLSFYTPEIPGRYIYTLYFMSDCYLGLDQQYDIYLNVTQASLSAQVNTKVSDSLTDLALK

| binding result [1] | binding result [2] | Binder |
| --- | --- | --- |
| binds |  | Flag-ASCC2 (natural protein) MPALPLDQLQITHKDPKTGKLRTSPALHPEQKADRYFVLYKPPPKDNIPALVEEYLERATFVANDLDWLLALPHDKFWCQVIFDETLQKCLDSYLRYVPRKFDEGVASAPEVVDMQKRLHRSVFLTFLRMSTHKESKDHFISPSAFGEILYNNFLFDIPKILDLCVLFGKGNSPLLQKMIGNIFTQQPSYYSDLDETLPTILQVFSNILQHCGLQGDGANTTPQKLEERGRLTPSDMPLLELKDIVLYLCDTCTTLWAFLDIFPLACQTFQKHDFCYRLASFYEAAIPEMESAIKKRRLEDSKLLGDLWQRLSHSRKKLMEIFHIILNQICLLPILESSCDNIQGFIEEFLQIFSSLLQEKRFLRDYDALFPVAEDISLLQQASSVLDETRTAYILQAVESAWEGVDRRKATDAKDPSVIEEPNGEPNGVTVTAEAVSQASSHPENSEEEECMGAAAAVGPAMCGVELDSLISQVKDLLPDLGEGFILACLEYYHYDPEQVINNILEERLAPTLSQLDRNLDREMKPDPTPLLTSRHNVFQNDEFDVFSRDSVDLSRVHKGKSTRKEENTRSLLNDKRAVAAQRQRYEQYSVVVEEVPLQPGESLPYHSVYYEDEYDDTYDGNQVGANDADSDDELISRRPFTIPQVLRTKVPREGQEEDDDDEEDDADEEAPKPDHFVQDPAVLREKAEARRMAFLAKKGYRHDSSTAVAGSPRGHGQSRETTQERRKKEANKATRANHNRRTMADRKRSKGMIPS |
|  | binds | Flag-ALKBH3 (enzyme) MEEKRRRARVQGAWAAPVKSQAIAQPATTAKSHLHQKPGQTWKNKEHHLSDREFVFKEPQQVVRRAPEPRVIDREGVYEISLSPTGVSRVCLYPGFVDVKEADWILEQLCQDVPWKQRTGIREDITYQQPRLTAWYGELPYTYSRITMEPNPHWHPVLRTLKNRIEENTGHTFNSLLCNLYRNEKDSVDWHSDDEPSLGRCPIIASLSFGATRTFEMRKKPPPEENGDYTYVERVKIPLDHGTLLIMEGATQADWQHRVPKEYHSREPRVNLTFRTVYPDPRGAPW |
